In patent US12385055B2, “Compositions and methods for production of salidroside, icariside D2, and precursors of salidroside and icariside D2” (Whitehead Institute for Biomedical Research, priority 2017, dated 2025):

Experiments:
[1] = target: Rhodiola rosea Rr4HPAAS, 4-hydroxyphenylacetaldehyde synthase, GenBank MF674522, SEQ ID NO: 2 (Rhodiola rosea, UniProt A0A2I6B3P0); test: Michaelis-Menten kinetics of Rr4HPAAS against aromatic amino acids; conditions: compared with L-tyrosine and L-DOPA; pH 8.0, 30° C.
Description: (§1) The AAS enzyme assays were performed in 100 μL of reaction buffer (50 mM Tris, pH 8.0) containing 50 μg of recombinant enzyme, 200 μM PLP. Kinetic reactions were incubated with a range of amino acid substrate concentrations (1 μM-4 mM) at 30° C. for 30 minutes prior to quenching with 100 μL of 0.8 M formic acid. […] Rr4HPAAS reactions were also analyzed by LC-MS-UV. 50 μL of reaction mixture was analyzed by an Ultimate 3000 liquid chromatography system (Dionex), equipped with a 150 mm C18 Column (Kinetex 2.6 μm silica core shell C18 100 Å pore, Phenomenex) and coupled to an UltiMate 3000 diode-array detector (DAD) in-line UV-Vis spectrophotometer (Dionex) and a TSQ Quantum Access MAX triple-quadrupole mass spectrometer (Thermo-Scientific). To resolve chromatographically L-tyrosine, tyrosol and 4-HPAAA, compounds were separated through the use of an isocratic mobile phase containing 50 mM monopotassium phosphate pH 4.6, 15% (v/v) acetonitrile and 0.5 mM octyl sulfate. Rr4HPAAS product formation was quantified using the UV absorbance at 280 nm and compared to analytical standards using the diode array detector wavelength at a wavelength range of 200-500 nm and chromatographic retention time. […]
(§2) Kinetic constants such as Km and Vmax were determined by fitting raw data to the Michaelis-Menten equation using the nonlinear regression function in Prism (version 7.0).

N. benthamiana leaves = test: Agrobacterium-mediated transient expression in leaves with LC-HRAM-MS metabolic profiling; type: in vivo; conditions: leaves harvested 5 days after infiltration
Description: To further evaluate the biochemical function of R. rosea tyrosol glycoside biosynthetic genes in planta, these genes were expressed in N. benthamiana leaves using the Agrobacterium tumefaciens-mediated transient protein production technique (Sainsbury et al., 2009) followed by LC-HRAM-MS-based metabolic profiling. […] PsTyDC and the previously reported Petroselinum crispum 4HPAAS (Pc4HPAAS, GenBank: AAA33861) (Torrens-Spence et al., 2012) were also tested in parallel as controls. […] The chemical identity of these compounds was confirmed by both LC-HRAM-MS and nuclear magnetic resonance (NMR) analyses (FIGS. 20-26). […] Next, the in planta regio-specificity of RrT8GT and RrT4GT in tyrosol glycosylation was evaluated. […] Meanwhile, the accumulation of free tyrosol was reduced in these plants compared to those with Rr4HPAAS expression alone (FIG. 27). […]
Crown tissue and root tissue of a three-month-old R. rosea plant was harvested and stored at −80° C. before subsequent metabolomic analysis. […] The extracts were then analyzed by LC-HRAM-MS. […]

[2] = substrate: N[C@@H](Cc1ccc(O)c(O)c1)C(=O)O; test: purified protein, by the assay type; conditions: other: amino acid substrate 1 μM-4 mM, 200 μM PLP, pH 8.0, 30° C., 30 min, peroxide assay
[3] = substrate: N[C@@H](Cc1ccc(O)cc1)C(=O)O; test: purified protein, by the assay type; conditions: other: amino acid substrate 1 μM-4 mM, 200 μM PLP, pH 8.0, 30° C., 30 min, peroxide assay
Description: The AAS enzyme assays were performed in 100 μL of reaction buffer (50 mM Tris, pH 8.0) containing 50 μg of recombinant enzyme, 200 μM PLP. Kinetic reactions were incubated with a range of amino acid substrate concentrations (1 μM-4 mM) at 30° C. for 30 minutes prior to quenching with 100 μL of 0.8 M formic acid. […] Rr4HPAAS reactions were also analyzed by LC-MS-UV. 50 μL of reaction mixture was analyzed by an Ultimate 3000 liquid chromatography system (Dionex), equipped with a 150 mm C18 Column (Kinetex 2.6 μm silica core shell C18 100 Å pore, Phenomenex) and coupled to an UltiMate 3000 diode-array detector (DAD) in-line UV-Vis spectrophotometer (Dionex) and a TSQ Quantum Access MAX triple-quadrupole mass spectrometer (Thermo-Scientific). To resolve chromatographically L-tyrosine, tyrosol and 4-HPAAA, compounds were separated through the use of an isocratic mobile phase containing 50 mM monopotassium phosphate pH 4.6, 15% (v/v) acetonitrile and 0.5 mM octyl sulfate. Rr4HPAAS product formation was quantified using the UV absorbance at 280 nm and compared to analytical standards using the diode array detector wavelength at a wavelength range of 200-500 nm and chromatographic retention time. The reduction of aldehyde products was achieved by addition of saturated sodium borohydride in ethanol or by addition of 10 mM NADPH and 10 g of Rr4HPAR1 or Rr4HPAR2.

[4] = Hydrogen peroxide production from L-tyrosine by recombinant AAS candidates; type: biochemical; conditions: L-tyrosine as substrate
Description: FIG. 12 is a graph showing relative hydrogen peroxide production for the Rr4HPAAS, the RrAAS and the PsTyDC. 100 μL reaction mixtures containing 50 μg of recombinant enzyme, 2 mM L-tyrosine, 50 mM Tris pH 8.0 and 200 μM PLP were incubated at 30° C. for various time points prior to quenching with 100 μL of 0.8 M formic acid. Hydrogen peroxide levels of quenched reaction mixtures were subsequently analyzed using Pierce Quantitative Peroxide Assay Kit against a standard curve of hydrogen peroxide.
as §1, with “PLP.” for “PLP. Kinetic reactions were incubated with a range of amino acid substrate concentrations (1 μM-4 mM) at 30° C. for 30 minutes prior to quenching with 100 μL of 0.8 M formic acid.”, “To resolve chromatographically L-tyrosine, tyrosol and 4-HPAAA, compounds were separated through the use of an isocratic mobile phase containing 50 mM monopotassium phosphate pH 4.6, 15% (v/v) acetonitrile and 0.5 mM octyl sulfate.” left out

[5] = substrate: OCCc1ccc(O)cc1; test: Michaelis-Menten kinetics of RrT4GT (RrUGT3), tyrosol 4-O-glucosylation; type: biochemical, Rhodiola rosea; conditions: other: substrate tyrosol (0.01-5.0 mM), 10 mM UDP-glucose, pH 8.0, 30° C., 10 min
Description: (§3) Kinetic characterization of UGTs was conducted in 200 μL reaction buffer (50 mM Tris, pH 8.0) containing 10 mM UDP-glucose and various concentrations of tyrosol (0.01-5.0 mM). Reactions were started with addition of recombinant enzyme, incubated at 30° C. for 10 minutes, and quenched by addition of 200 μL of methanol. The reaction mixed was then analyzed by LC-HRAR-MS as described above. Compounds were separated by reversed-phase chromatography with a ramp gradient of solvent A (0.1% formic acid in H2O) and solvent B (0.1% formic acid in acetonitrile): 5% solvent B for 0.5 min, 5-55% solvent B over 6 min, 55-5% solvent B over 1.0 min and a final equilibration of 5% solvent B for 1 min with a flow rate at 0.6 mL/min. Product formation was measured using select ion monitoring in positive mode for a centroid center mass of 318.15. Product mass was calculated by comparison to a standard curve of the NMR verified plant purified salidroside and icariside D2 samples.
as §2

[6] = substrate: OCCc1ccc(O)cc1; test: Michaelis-Menten kinetics of RrT8GT (RrUGT33), tyrosol 8-O-glucosylation; type: biochemical, Rhodiola rosea; conditions: other: substrate tyrosol (0.01-5.0 mM), 10 mM UDP-glucose, pH 8.0, 30° C., 10 min
Description: as §3, §2

N[C@@H](Cc1ccccc1)C(=O)O [L-phenylalanine]
substrate preference (Michaelis-Menten kinetics, in words) [1]: much less preferred substrates

N[C@@H](Cc1c[nH]c2ccccc12)C(=O)O [L-tryptophan]
substrate preference (Michaelis-Menten kinetics, in words) [1]: much less preferred substrates

B1: Rhodiola rosea Rr4HPAAS, 4-hydroxyphenylacetaldehyde synthase, GenBank MF674522, SEQ ID NO: 2 (Rhodiola rosea) (protein)
chain: MGSLPSPNDPSNTFNPMDLTELSTESKLVVDFITQYYQTLETRPVQPRVKPGFLTGQLPDKAPFHGESMEVILSDVNEKIVPGLTHWQSPNFHAYFPASSSNAGLLGELLCSGLSVIGFTWSSSPAATELENVVVDWMAKMLNLPSSFCFSGGGGGVLQANTCEAVLCTLAAARDKALNRVGDDQINKLVLYCSDQTHFTIHKGAKLIGIRSKNIKSITTKKENEFKLCPNDLRDAIRSDLEAGLVPFYVCGTIGTTALGVVDPIKELGKVAREFDLWLHVDGAYGGSACICPEFQHYLDGVDLVDSISMNAHKWLLSNLDCCFLWLQSPNALIESLAAEANFLKGGSEMVDYKDWQISLSRRFRAIKMWMVIRRYGVSNLIEHIRSDVSMAVRFEEMVAADDRFEIVFPRKFALVCFKLSSEKTPPGRDSELTRELMERVNSSGKAYLSGVQMGRIFFIRCVIGSSLTEERHVDNLWRLIQETAQSIVS
metabolites produced on expression of the enzyme alone (N. benthamiana leaves): significant accumulation of both salidroside and icariside D2 | Km [2]: 1040 ± 100 µM | Km [3]: 420 ± 20 µM | kcat [3]: 4.92 ± 0.08 s⁻¹ | kcat/Km [3]: 11700 M⁻¹ s⁻¹ | hydrogen peroxide production [4]: much higher activity

B2: PsTyDC: Papaver somniferum tyrosine decarboxylase, tested as control (protein, UniProt O82415 1-512, looked up)
Tyrosine decarboxylase: MGSLPTNNLESISLCSQNPLDPDEFRRQGHMIIDFLADYYKNVEKYPVRSQVEPGYLKKRLPESAPYNPESIETILEDVTNDIIPGLTHWQSPNYFAYFPSSGSIAGFLGEMLSTGFNVVGFNWMSSPAATELESIVMNWLGQMLTLPKSFLFSSDGSSGGGGVLQGTTCEAILCTLTAARDKMLNKIGRENINKLVVYASDQTHCALQKAAQIAGINPKNVRAIKTSKATNFGLSPNSLQSAILADIESGLVPLFLCATVGTTSSTAVDPIGPLCAVAKLYGIWVHIDAAYAGSACICPEFRHFIDGVEDADSFSLNAHKWFFTTLDCCCLWVKDSDSLVKALSTSPEYLKNKATESKQVIDYKDWQIALSRRFRSMKLWLVLRSYGVANLRTFLRSHVKMAKHFQGLIGMDNRFEIVVPRTFAMVCFRLKPTAIFKQKIVDNDYIEDQTNEVNVKLLESVNASGKIYMTHAVVGGVYMIRFAVGATLTEERHVTGAWKVVQEHTDAILGA
metabolites produced on expression of the enzyme alone (N. benthamiana leaves): no measurable production of tyrosol glycosides

B3: Rhodiola rosea RrT4GT (RrUGT3), tyrosol:UDP-glucose 4-O-glucosyltransferase, SEQ ID NO: 8 (Rhodiola rosea) (protein)
chain: MSGTPHIAILPSPGMGHLIPMAEFAKRLVHHHNFSITFVIPTDGPPSSAYQQVLTSLPSSIDHIFLPQVDLTDVVSQSPAHPRIETLISLTVARSLSSLRTTLSSLQSSKNLVSLVVDLFGTDAFDPAIELGISPYIFFPSTAMTLSLFLYMPQLDKSVTCEFRHMTDLVRIPGCVPVRGSDLFDPVQDRTDEAYKWVIHHSNRYPMAEGVIENSFMELEHGALKYLQTVQSGKPPVYAVGPLIKMDYDVDDSGSKIIEWLDDQPVGSVLFVSFGSGGTLSYEQMTELAHGLESSQQRFLWVVRSPNQIPNSTYFSVQSQKDPLAYLPEGFLNRTEGRGLVVSNWAPQAQILSHGSTGGFMSHCGWNSILESVVHGVPIIAWPLYAEQKMNSIIVVEDVKVALRPAGVGERVVERSEITAVVKALMEGEEGKKVRNRMKELKEAAARAVSDDGASTIAIADLAQKWRSSMKH
Km [5]: 4110 ± 80 µM | kcat [5]: 481.6 ± 3.91 s⁻¹ | kcat/Km [5]: 117000 M⁻¹ s⁻¹

B4: Rhodiola rosea RrT8GT (RrUGT33), tyrosol:UDP-glucose 8-O-glucosyltransferase, SEQ ID NO: 20 (Rhodiola rosea) (protein)
chain: MSLIEKPLTAIETREKPHAVCIPYPAQGHINPMMQLAKLLHHSGFHITFVHTEYNYDRLVKSQGSACVAGLPDFRFEAIPDGLPSTNGDVTQDIPLLSSSTSKTCLKPFKELLKRLQDKCKELPDDVPPLSCIVSDAAMSFTIDASEEFGVPIALLWTASACGFLGYTHYPYLIDRGVIPLKDESQLTNGYLDMSIDGIPCMEGIRLRDLPSFLRTTDLDDMMFSYILHEIKQVSRGSAIILNTFEALDHDVLDSLSKIYQNVILPVGPLHVSLNKIPKHYPLQSLSSNLWKDDTDCIPWLSSKASKSVIYVNFGSITTVSPKQIVEFAWGLANSKHPFLWIIRPDLVAGEASIIPQDFMDETKGRGLLAGWCDQELVLNHPSIGGFLTHCGWNSIIESISAGVPTVCWPFFAEQQTNCWFACKKWCIGMEMHTDVKRDEVDKLLRELMEGDKGEELKRKATNWKRLAEEAVSSTGLSTLNFRTLVNQVLLSKTKHIR
Km [6]: 1370 ± 50 µM | kcat [6]: 576.2 ± 5.68 s⁻¹ | kcat/Km [6]: 421000 M⁻¹ s⁻¹
